Test results published in patent publication US20110189178A1.
One block for each substance: values may come before it.

What was measured:
[1] = target: recombinant human FcγRIIb (R&D Systems) (human) (UniProt P31994); assay: Biacore SPR
[2] = target: recombinant human FcγRIIb (R&D Systems) (human) (UniProt P31994); assay: Biacore SPR, global Langmuir fit (mean ± SD, n = 4)
FcγRI (human) [3] = target: FcγRI (human) (UniProt P12314); assay: Biacore SPR [cont.]
FcγRIIaH (human) [4] = target: FcγRIIaH (human) (UniProt P12318); assay: Biacore SPR [cont.]
FcγRIIaH (human), sequence (P12318 34-217): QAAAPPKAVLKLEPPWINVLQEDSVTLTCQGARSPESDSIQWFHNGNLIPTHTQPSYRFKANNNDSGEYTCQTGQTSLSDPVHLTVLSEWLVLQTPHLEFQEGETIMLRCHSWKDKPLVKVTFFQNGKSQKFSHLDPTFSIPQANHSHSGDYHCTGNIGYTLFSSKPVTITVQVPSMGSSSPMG

[5] = target: human FcγRIIIa, V158 isoform (human) (UniProt P08637); assay: Biacore SPR [cont.]
human FcγRIIIa, V158 isoform (human), sequence (P08637 17-208 F176V limits assumed): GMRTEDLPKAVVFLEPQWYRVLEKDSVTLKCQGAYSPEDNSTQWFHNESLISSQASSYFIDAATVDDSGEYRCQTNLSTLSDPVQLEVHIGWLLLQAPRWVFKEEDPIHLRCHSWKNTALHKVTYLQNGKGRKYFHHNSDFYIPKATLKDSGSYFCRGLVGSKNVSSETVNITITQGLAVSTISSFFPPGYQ

[6] = target: recombinant human FcγRIIb (R&D Systems) (human) (UniProt P31994); assay: Biacore SPR [cont.]
[7] = target: FcγRIIb on the cell surface (UniProt P31994); assay: binding to FcγRIIb on the cell surface
FcγRIIb on the cell surface, sequence (P31994 43-310 limits assumed): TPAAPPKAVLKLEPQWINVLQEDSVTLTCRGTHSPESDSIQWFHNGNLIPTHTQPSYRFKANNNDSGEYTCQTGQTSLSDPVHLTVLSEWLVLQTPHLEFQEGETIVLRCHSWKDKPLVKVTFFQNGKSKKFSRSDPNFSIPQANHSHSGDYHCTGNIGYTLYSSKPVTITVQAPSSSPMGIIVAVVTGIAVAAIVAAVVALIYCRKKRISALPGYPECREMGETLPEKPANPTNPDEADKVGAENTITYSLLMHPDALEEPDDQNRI

FcγRI (human) [8] = target: FcγRI (human) (UniProt P12314); assay: Biacore SPR
FcγRIIIaF (human) [9] = target: FcγRIIIaF (human) (UniProt P08637); assay: Biacore SPR
FcγRIIIaF (human), sequence (P08637 17-208 limits assumed): as the sequence (P08637 17-208 F176V limits assumed) above, with V160F counted along it

FcγRIIaH (human) [10] = target: FcγRIIaH (human) (UniProt P12318); assay: Biacore SPR
FcγRIIaR (human) [11] = target: FcγRIIaR (human) (UniProt P12318); assay: Biacore SPR
[12] = target: human FcγRIIIa, V158 isoform (human) (UniProt P08637); assay: Biacore SPR
FcγRIIIaF (human) [13] = target: FcγRIIIaF (human) (UniProt P08637); assay: Biacore SPR [cont.]
FcγRIIaR (human) [14] = target: FcγRIIaR (human) (UniProt P12318); assay: Biacore SPR [cont.]

recombinant human FcγRIIb (R&D Systems) (human), sequence (P31994 46-217 limits assumed): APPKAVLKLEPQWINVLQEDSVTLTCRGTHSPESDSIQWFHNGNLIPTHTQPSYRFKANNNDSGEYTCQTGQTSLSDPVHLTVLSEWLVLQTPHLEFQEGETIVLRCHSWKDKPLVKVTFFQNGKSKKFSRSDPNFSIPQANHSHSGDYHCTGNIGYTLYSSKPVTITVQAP
FcγRI (human), sequence (P12314 16-288 limits assumed): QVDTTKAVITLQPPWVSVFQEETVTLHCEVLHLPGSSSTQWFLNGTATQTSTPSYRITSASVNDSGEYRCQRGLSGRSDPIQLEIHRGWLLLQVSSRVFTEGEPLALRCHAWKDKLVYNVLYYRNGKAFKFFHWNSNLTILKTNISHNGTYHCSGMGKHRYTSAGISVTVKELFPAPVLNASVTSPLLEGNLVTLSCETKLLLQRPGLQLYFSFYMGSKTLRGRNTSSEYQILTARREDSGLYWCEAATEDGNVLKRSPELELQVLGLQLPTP

Substance: G236D (antibody)
Fold (KD native IgG1/KD variant) [1]: 1.8 fold
Kd [2]: 1000 nM

Substance: L328F (antibody)
Kd [2]: 640 nM

Substance: Native IgG1 (antibody)
Kd (FcγRI (human) [8]): 0.329 nM
Kd (FcγRIIIaF (human) [9]): 1350 nM
Kd (FcγRIIaH (human) [10]): 646 nM
Kd (FcγRIIaR (human) [11]): 859 nM
Kd [12]: 191 nM
Kd [1]: 1470 nM
EC50 [7]: 440 nM
Kd [2]: 1800 nM

Substance: S239D (antibody)
Kd [2]: 380 nM

Substance: S239D/I332E (antibody)
Kd (FcγRI (human) [3]): 0.0374 nM
Kd (FcγRIIIaF (human) [13]): 28.2 nM
Kd (FcγRIIaH (human) [4]): 163 nM
Kd (FcγRIIaR (human) [14]): 68.6 nM
Kd [6]: 101 nM

Substance: S267E (antibody)
Fold (KD native IgG1/KD variant) [1]: 30 fold
EC50 [7]: 25 nM
Fold (against native IgG1) [7]: 18 fold

Further substances by falling Kd [2], results first:

Kd (FcγRI (human) [3]): 3.71 nM
Kd (FcγRIIaH (human) [4]): 2730 nM
Kd [5]: 579 nM
Kd [6]: 26.6 nM
EC50 [7]: 6 nM
Kd [2]: 25 nM
Substance: G236D/S267E (antibody)

Fold (KD native IgG1/KD variant) [1]: 150 fold
Fold (FcγRI (human) [3]): 23.2
Kd (FcγRI (human) [3]): 0.0142 nM
Fold (FcγRIIIaF (human) [13]): 2.62
Kd (FcγRIIIaF (human) [13]): 516 nM
Fold (FcγRIIaH (human) [4]): 1.27
Kd (FcγRIIaH (human) [4]): 510 nM
Fold (FcγRIIaR (human) [14]): 120
Kd (FcγRIIaR (human) [14]): 7.16 nM
Fold [5]: 3.74
Kd [5]: 51.2 nM
Fold [6]: 111
Kd [6]: 13.3 nM
EC50 [7]: 2 nM
Fold (against native IgG1) [7]: 220 fold
Kd [2]: 12 nM
Substance: S239D/S267E (antibody)

Fold (KD native IgG1/KD variant) [1]: 430 fold
Fold (FcγRI (human) [3]): 1.5
Kd (FcγRI (human) [3]): 0.22 nM
Fold (FcγRIIaH (human) [4]): 0.7
Kd (FcγRIIaH (human) [4]): 923 nM
Fold (FcγRIIaR (human) [14]): 275
Kd (FcγRIIaR (human) [14]): 3.12 nM
Fold [5]: 0.038
Kd [5]: 5040 nM
Fold [6]: 242
Kd [6]: 6.06 nM
EC50 [7]: 1.4 nM
Fold (against native IgG1) [7]: 320 fold
Kd [2]: 4.2 nM
Substance: S267E/L328F (antibody)
